Data: article PMC10782416, “Fluorescence Correlation Spectroscopy as a Versatile Method to Define Aptamer–Protein Interactions with Single-Molecule Sensitivity”

How the values were obtained:
[1] = target: T1, c-Met (soluble recombinant, hepatocyte growth factor receptor) (Homo sapiens, UniProt P08581 25-932); test: FCS kinetics (koff/kon); kon 1.70e4 M-1 s-1; koff 4.30e-4 s-1; PBS pH 7.4; aptamer folded in PBS with 5 mM MgCl2 (1 mM for AS1411 and 36t), 90 C 2 min then cooled; final buffer not detailed; overnight at room temperature; 100 pM aptamer (1 nM for serum proteins); conditions: protein: commercial; tags: polyhistidine tag; label: 5'-atto633; G-quadruplex
[2] = target: T1, c-Met (soluble recombinant, hepatocyte …); test: FCS; 5 mM Mg2+ in folding buffer; 100 pM aptamer; PBS pH 7.4; aptamer folded in PBS with 5 mM MgCl2 (1 mM for AS1411 and 36t), 90 C 2 min then cooled; final buffer not detailed; overnight at room temperature; 100 pM aptamer (1 nM for serum proteins); conditions: protein: commercial; tags: polyhistidine tag; label: 5'-atto633; G-quadruplex
[3] = target: transferrin (Tf) (Homo sapiens, UniProt P02787 20-698); test: FCS; Tf 1-100 uM; PBS pH 7.4; aptamer folded in PBS with 5 mM MgCl2 (1 mM for AS1411 and 36t), 90 C 2 min then cooled; final buffer not detailed; overnight at room temperature; 100 pM aptamer (1 nM for serum proteins); conditions: protein: native; label: 5'-atto633; G-quadruplex
[4] = target: fibrinogen (Fibr) (Homo sapiens, UniProt P02671;P02675;P02679 20-629;31-491;27-433); test: FCS; fibrinogen 1-10 uM; PBS pH 7.4; aptamer folded in PBS with 5 mM MgCl2 (1 mM for AS1411 and 36t), 90 C 2 min then cooled; final buffer not detailed; overnight at room temperature; 100 pM aptamer (1 nM for serum proteins); conditions: protein: native; chain copies: 2;2;2; label: 5'-atto633; G-quadruplex
[5] = target: T1, c-Met (soluble recombinant, hepatocyte …); test: FCS; serum protein mix: HSA, IgG, transferrin, fibrinogen; PBS pH 7.4; aptamer folded in PBS with 5 mM MgCl2 (1 mM for AS1411 and 36t), 90 C 2 min then cooled; final buffer not detailed; overnight at room temperature; 100 pM aptamer (1 nM for serum proteins); conditions: protein: commercial; tags: polyhistidine tag; label: 5'-atto633; G-quadruplex
[6] = target: PDGF-BB (Homo sapiens, UniProt P01127 82-190); test: FCS; 1 mg/mL BSA; 1 mM Mg2+ in folding buffer; titration regime; PBS pH 7.4; aptamer folded in PBS with 5 mM MgCl2 (1 mM for AS1411 and 36t), 90 C 2 min then cooled; final buffer not detailed; overnight at room temperature; 100 pM aptamer (1 nM for serum proteins); conditions: protein: commercial; chain copies: 2; label: 5'-atto633
[7] = target: T1, c-Met (soluble recombinant, hepatocyte …); test: FCS; c-Met up to 100 nM; PBS pH 7.4; aptamer folded in PBS with 5 mM MgCl2 (1 mM for AS1411 and 36t), 90 C 2 min then cooled; final buffer not detailed; overnight at room temperature; 100 pM aptamer (1 nM for serum proteins); conditions: protein: commercial; tags: polyhistidine tag; chain copies: 2; label: 5'-atto633; G-quadruplex destabilized
[8] = target: nucleolin (NCL) (Homo sapiens, UniProt P19338 1-710); test: FCS; 1 mM Mg2+ in folding buffer; PBS pH 7.4; aptamer folded in PBS with 5 mM MgCl2 (1 mM for AS1411 and 36t), 90 C 2 min then cooled; final buffer not detailed; overnight at room temperature; 100 pM aptamer (1 nM for serum proteins); conditions: protein: commercial; label: 5'-atto633
Sequence of nucleolin (NCL) (P19338 whole entry): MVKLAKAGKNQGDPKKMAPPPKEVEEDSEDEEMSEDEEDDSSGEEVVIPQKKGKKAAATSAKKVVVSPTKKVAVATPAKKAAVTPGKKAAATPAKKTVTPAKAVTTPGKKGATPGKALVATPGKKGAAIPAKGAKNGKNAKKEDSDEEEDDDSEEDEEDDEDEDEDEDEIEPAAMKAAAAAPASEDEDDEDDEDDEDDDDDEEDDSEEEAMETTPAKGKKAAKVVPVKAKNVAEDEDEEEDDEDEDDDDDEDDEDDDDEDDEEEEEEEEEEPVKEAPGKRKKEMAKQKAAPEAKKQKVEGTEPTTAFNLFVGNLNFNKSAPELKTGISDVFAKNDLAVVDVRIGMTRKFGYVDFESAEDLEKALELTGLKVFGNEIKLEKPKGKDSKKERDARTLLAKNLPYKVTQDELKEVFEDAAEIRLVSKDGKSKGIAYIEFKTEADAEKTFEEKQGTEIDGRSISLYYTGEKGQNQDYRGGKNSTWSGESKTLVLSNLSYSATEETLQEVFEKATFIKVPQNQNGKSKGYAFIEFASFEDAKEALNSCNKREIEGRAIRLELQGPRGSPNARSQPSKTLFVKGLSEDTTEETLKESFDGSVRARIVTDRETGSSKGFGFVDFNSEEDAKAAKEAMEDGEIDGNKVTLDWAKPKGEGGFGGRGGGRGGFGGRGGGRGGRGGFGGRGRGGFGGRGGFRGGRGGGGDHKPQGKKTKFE

T1 sequence (P08581 25-932): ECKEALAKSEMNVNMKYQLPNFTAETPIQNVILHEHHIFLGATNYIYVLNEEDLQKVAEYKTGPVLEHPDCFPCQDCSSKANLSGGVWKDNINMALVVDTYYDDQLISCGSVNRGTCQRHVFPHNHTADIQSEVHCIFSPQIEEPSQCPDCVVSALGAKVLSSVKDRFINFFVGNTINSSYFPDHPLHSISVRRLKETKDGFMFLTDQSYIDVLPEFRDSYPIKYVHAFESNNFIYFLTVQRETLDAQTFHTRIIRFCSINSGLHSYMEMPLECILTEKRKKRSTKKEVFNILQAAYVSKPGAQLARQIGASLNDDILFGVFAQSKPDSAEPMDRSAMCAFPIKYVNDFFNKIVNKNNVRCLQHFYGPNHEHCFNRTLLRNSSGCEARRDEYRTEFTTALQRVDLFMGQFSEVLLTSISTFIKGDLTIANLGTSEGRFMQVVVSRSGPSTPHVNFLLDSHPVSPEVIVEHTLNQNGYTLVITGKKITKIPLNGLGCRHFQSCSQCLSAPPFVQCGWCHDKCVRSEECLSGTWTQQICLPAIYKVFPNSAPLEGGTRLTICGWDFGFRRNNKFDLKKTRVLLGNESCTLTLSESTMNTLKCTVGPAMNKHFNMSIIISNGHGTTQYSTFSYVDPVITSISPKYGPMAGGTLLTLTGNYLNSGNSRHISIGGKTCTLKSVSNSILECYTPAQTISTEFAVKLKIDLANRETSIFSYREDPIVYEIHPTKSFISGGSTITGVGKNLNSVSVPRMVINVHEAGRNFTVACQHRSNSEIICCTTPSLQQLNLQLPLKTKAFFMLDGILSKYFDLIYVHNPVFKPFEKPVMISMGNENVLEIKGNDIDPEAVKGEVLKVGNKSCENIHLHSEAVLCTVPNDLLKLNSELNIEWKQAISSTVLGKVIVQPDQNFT
Sequence of fibrinogen (Fibr) (P02671 20-629, chain 1 of 3): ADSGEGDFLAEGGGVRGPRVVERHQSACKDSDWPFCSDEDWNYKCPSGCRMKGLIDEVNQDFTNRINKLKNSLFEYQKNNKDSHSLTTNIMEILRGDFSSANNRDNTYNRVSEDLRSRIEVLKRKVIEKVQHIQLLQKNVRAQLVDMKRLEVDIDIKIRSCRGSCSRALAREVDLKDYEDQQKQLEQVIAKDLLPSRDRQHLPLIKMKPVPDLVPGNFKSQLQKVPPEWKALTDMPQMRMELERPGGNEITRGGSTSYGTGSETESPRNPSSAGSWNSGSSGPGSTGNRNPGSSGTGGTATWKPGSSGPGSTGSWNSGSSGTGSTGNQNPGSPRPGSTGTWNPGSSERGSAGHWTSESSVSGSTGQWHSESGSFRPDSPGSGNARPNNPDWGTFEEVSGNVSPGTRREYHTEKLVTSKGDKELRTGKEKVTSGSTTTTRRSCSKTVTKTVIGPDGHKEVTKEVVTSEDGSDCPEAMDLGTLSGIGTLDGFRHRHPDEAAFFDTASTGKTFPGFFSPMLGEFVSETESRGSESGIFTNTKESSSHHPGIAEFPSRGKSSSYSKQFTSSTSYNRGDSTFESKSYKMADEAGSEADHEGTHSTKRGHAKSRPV
Sequence of fibrinogen (Fibr) (P02675 31-491, chain 2 of 3): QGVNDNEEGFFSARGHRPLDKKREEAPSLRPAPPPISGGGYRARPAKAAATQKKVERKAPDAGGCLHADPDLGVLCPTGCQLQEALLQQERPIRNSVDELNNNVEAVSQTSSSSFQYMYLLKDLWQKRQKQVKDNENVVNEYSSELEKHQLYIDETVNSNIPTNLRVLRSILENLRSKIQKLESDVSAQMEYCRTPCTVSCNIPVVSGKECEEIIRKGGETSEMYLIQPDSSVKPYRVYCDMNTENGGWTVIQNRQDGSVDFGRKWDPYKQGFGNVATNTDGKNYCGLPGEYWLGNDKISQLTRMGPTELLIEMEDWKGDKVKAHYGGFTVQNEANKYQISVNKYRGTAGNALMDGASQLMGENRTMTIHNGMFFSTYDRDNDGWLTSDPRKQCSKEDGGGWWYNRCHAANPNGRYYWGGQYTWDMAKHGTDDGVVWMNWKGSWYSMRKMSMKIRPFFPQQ
Sequence of fibrinogen (Fibr) (P02679 27-433, chain 3 of 3): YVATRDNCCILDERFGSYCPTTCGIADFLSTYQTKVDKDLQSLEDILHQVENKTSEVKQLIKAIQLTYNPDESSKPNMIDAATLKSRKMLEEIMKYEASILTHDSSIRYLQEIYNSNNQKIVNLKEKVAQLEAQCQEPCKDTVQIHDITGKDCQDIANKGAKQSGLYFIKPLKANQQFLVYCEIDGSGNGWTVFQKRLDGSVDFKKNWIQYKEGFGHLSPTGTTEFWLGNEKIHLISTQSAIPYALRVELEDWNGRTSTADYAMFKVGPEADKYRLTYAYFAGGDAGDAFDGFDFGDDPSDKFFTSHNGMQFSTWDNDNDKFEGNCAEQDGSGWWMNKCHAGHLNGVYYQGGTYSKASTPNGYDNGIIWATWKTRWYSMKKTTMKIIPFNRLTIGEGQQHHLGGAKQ
Sequence of PDGF-BB (P01127 82-190): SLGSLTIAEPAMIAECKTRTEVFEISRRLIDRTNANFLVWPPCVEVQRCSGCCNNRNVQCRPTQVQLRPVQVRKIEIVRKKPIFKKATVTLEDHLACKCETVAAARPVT
Sequence of transferrin (Tf) (P02787 20-698): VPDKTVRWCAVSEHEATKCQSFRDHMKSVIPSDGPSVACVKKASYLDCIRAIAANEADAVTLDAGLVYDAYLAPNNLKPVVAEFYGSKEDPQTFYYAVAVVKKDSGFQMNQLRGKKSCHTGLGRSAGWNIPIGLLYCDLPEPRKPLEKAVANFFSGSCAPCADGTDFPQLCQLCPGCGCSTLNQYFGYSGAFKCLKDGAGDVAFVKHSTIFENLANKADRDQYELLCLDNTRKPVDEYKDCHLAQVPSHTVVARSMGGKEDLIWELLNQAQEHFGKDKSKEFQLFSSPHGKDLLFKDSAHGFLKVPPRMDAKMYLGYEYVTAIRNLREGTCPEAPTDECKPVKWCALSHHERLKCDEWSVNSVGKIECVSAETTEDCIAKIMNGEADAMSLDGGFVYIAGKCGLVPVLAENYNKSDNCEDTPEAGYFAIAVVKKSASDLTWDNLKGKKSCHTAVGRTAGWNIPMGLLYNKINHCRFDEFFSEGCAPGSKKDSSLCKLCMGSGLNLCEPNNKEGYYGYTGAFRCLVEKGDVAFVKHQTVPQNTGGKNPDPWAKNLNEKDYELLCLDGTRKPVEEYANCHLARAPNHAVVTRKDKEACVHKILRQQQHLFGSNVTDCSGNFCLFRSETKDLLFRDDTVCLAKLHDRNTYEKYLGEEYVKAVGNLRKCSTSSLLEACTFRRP

B1: CLN3 (structured_DNA)
DNA: ATCAGGTGGATGGTAGCTCGGTCGGGGTGGGTGGGTTGGCAAGTCTGATTA
For B1, the Kd [1] was roughly 25 nM, the Kd [2] was 5 ± 1 nM and the binding result [3] was “no binding”. The binding result [4] was “no binding” and the Kd [5] was 5 nM.

Work on CACAGGCTACGGCACGTAGAGCATCACCATGATCCTGTG (structured_DNA) [36t] yielded a Kd [6] of less than 1 nM.

B2: G5mut (ssDNA)
DNA: ATCAGGCTGGATGGTAGCTCGGTCGATGTGGATGGTTTGTCAAGTCTGATTA
B2: no binding [7].

In the case of TTTGGTGGTGGTGGTTGTGGTGGTGGTGG (structured_DNA) [AS1411], the Kd [8] is reported as 30 nM.
